# According to the DeepSol protein solubility set:
# Test: soluble on expression in E. coli; label from the status in PepcDB or PDB records
row,Sequence,soluble on expression in E. coli
1,MGHHHHHHSHMPDHGDWTYEEQFKQLYELDGDPKRKEFLDDLFSFMQKRGTPVNRIPIMAKQVLDLFMLYVLVTEKGGLVEVINKKLWREITKGLNLPTSITSAAFTLRTQYMKYLYPYECEKRGLSNPNELQAAIDSNRREGRR,soluble
2,MGSDKIHHHHHHMTEQITEIDTLVVGAGQAGVAMSEHLTRLDIPHLVLEKQGIAQAWRSGRWDSLVANGPAWHDRFPGMVFPDCPPDSFVGKEQVADYFAAYARSFNAPIRTGVEVYSAERLAGRPGFRIDTSQGVIEAQRIVAATGPFQRPVIPAIAPQSPAIQQLHSAHYFNPQQLPEGGVLVIGAGSSGVQIADELQRAGRAVWLSVGAHDRPPRRYRQRDFCWWLGVLGMWDAAANAPGKEHVTIAVSGARGGHTVDFRQLAHQGVTLVGQTRGFDGDKALFHPDLAENIRRGDASYLALLDAADAWVARNGMDLPEEPSAREFLPDPACVTDPLLSLNLAEAGIGTIIWATGYTTDYRWLKVNAFDDAQRPQHHRGVSTEPGVYFLGLPWLSRRGSTFIWGVWHDAKYIADQIAIQRQYQRYQPSC,not soluble
3,MSSGKRRNPLGLSLPPTVNEQSESGEATAEEATATVPLEEQLKKLGLTEPQTQRLSEFLQVKEGIKELSEDMLQTEGELGHGNGGVVNKCVHRKTGVIMARKLVHLEIKPSVRQQIVKELAVLHKCNSPFIVGFYGAFVDNNDISICMEYMDGLSLDIVLKKVGRLPEKFVGRISVAVVRGLTYLKDEIKILHRDVKPSNMLVNSNGEIKLCDFGVSGMLIDSMANSFVGTRSYMAPERLTGSHYTISSDIWSFGLSLVELLIGRYPVPAPSQAEYATMFNVAENEIELADSLEEPNYHPPSNPASMAIFEMLDYIVNGPPPTLPKRFFTDEVIGFVSKCLRKLPSERATLKSLTADVFFTQYADHDDQGEFAVFVKGTINLPKLNP,not soluble
4,AKDWKWNLNWNGALNKNKVVSLPDNGLERNRQSAYQVYTGNGDEKKWVGGYQEGQRPGDLYMFVAEGLYKSQDEIPANLIDLTTGNNGSSGRPLYGGAEGYNKLTDSQKSNALPIQPGDVKWKDVNNDGVIDNYDMVKVGNTVPKWTGGINTTVSWKDLTLSARFDYALGFTAVDWKTMWIMSCAQGTYNTIEETKNTWTPENPNAKYPTYVWADQLGKRNYCRSSSMFAYNGNYIALRELSLSYKLPSILVQKAKLSNVELSITGQNLGYLTEAKHLFSPEKADNNGGYPLPRTVIFGINVSF,not soluble
5,GSHMKETKKAGPIELPEELEAQRQRHNDPRRPPWPLLHQRVVLLREGKGAPEDIALMWEQTKHYYPADWLIPLELTQVLKYSSGKYLQTYVADPDEMRKEVLMQLLNVKYGRVSDPNGGRVNKDVEEIISMAVDDLENMDLNPAADAVLIPTHT,soluble
6,GGRLLGALCVFKDITDAVELAEEVTNLKQVRTMLEAIIQSSDEAISVVDENGIGLLINKAYTKMTGLSEKEVIGKPANTDISEGESMHLKVLETRRPVRGVRMKVGPNEKEVIVNVAPVIVDG,not soluble
7,MEFMRVERVLLKDYTTLGVGGPAELWTVETREELKRATEAPYRVLGNGSNLLVLDEGVPERVIRLAGEFQTYDLKGWVGAGTLLPLLVQEAARAGLSGLEGLLGIPAQVGGAVKMNAGTRFGEMADALEAVEVFHDGAFHVYCPEELGFGYRKSHLPPGGIVTRVRLKLKERPKEEILRRMAEVDRARKGQPKRKSAGCAFKNPPGQSAGRLIDERGLKGLRVGDAMISLEHGNFIVNLGQARAKDVLELVRRVQEELPLELEWEVWP,soluble
8,EVPTIDGRAKIRIEAGTQPGKMLRLRNKGLPSVNGYGMGDQLVNVNVYIPESIDAKDEQAIAAMENSDSFKPTDAARKDIDKKYREMLD,not soluble
9,MSIEGGNYRRIRNFVDRECAKECIEDFSCFGYEWNSEEKICYLKSRSTSGKLIAKPNTMVGFCQDDEDEVRYRLQDHVIVGPIVMEADDVPDGEECKENCRKVGALYYSWRPNSDNQRSNVVPVEEEEDDEEQEVLGHCECISTMNELRLEYDAFSGFIPIPKHKHRRSILLRPFEI,not soluble
10,MGSDKIHHHHHHQIPREPITQQPMSAMPPMPPAMQAPGSIYNPGYAGRPLFEDQRPRNVGDILTIVIAENINATKSSGANTNRQGNTSFDVPTAGFLGGLFNKANLSAQGANKFAATGGASAANTFNGTITVTVTNVLPNGNLVVSGEKQMLINQGNEFVRFSGIVNPNTISGQNSVYSTQVADARIEYSAKGYINEAETMGWLQRFFLNIAPW,not soluble
11,MDYQERLKNLPPEVMTAFSESFIFLISNDKVQHFPARDLTQAEMIQRVKEKLGEAVTWSLWQGFVIAVNSEETCVAVLPKYYQLDGFENE,not soluble
12,MGSDKIHHHHHHMSHANQAIPLDEEAIFDAMPMEEEGQFANHATPLIRNCWYVCARRDEVGRTPISRRLLDTDVVMYRTRDGRPVAMHNRCPHRAFPLAKGHVEGDRLVCGYHGMQFEPDGLCAHLPAISHVPANACVQTYPIADRGPLTWIWMGDANLADEALIPELPWLASSEWGSVTGDFHIKADYVSMHENLIDQTHFPFLHPGTVGTPEYARASMNATTEGDQVLIHRRLDNAPPPGIYGKPADIMHKNVDRTSEARFVSPAVHMAHARIFDPQPEPGKPSVYGYYITHCFTPESNHSIHYWWFNSRDYGIDDTDIDAFMYEASMQAYYEDVEALEWIMDVVLTDNEAQQFELSFAPDKPGLMARRIMHRLAMSERG,not soluble
13,SGRPFVEMYSEIPEIIHMTEGRELVIPCRVTSPNITVTLKKFPLDTLIPDGKRIIWDSRKGFIISNATYKEIGLLTCEATVNGHLYKTNYLTHRQTNTIIDVQISTPRPVKLLRGHTLVLNCTATTPLNTRVQMTWSYPDEKNKRASVRRRIDQSNSHANIFYSVLTIDKMQNKDKGLYTCRVRSGPSFKSVNTSVHIYDKAFITVKHR,soluble
14,MSLKIVIIGGVAGGMSAATRLRRLMEDAEIVVMEKGPFVSFANCGLPYYVSGEIAEREQLLVQTPEALKARFNLDVRPHHEVVAIDPIEKVITVKHETEILTEHYDKLILSPGAKPFVPPITGLAEAKNVFSLRNVPDLDQIMTALTPETKRAVVIGAGFIGLEMAENLQKRGLEVTLVEKAPHVLPPLDEEMAAFVKAELSKNNVQVITGQSAVAFEEEGQVIRLEDGQTLASDLTILSVGVQPENTLAVEAGVATGLRGGIVVDEHYQTNQPDIYAVGDAIVVKQQITQEDALISLASPANRQGRQVADVIAGLERKNQGSIGTAIVRVFDLTAASTGLSERAAKAAGLTTAVVHISGKDHAGYYPGATDLQLKLVFHPTTGEIYGAQGIGAKGVDKRIDILATAIKGQLTIFDLPELEFTYAPPFGSAKDPVNMLGYAAMNLVEGLSENVQWYELSNELANGAVLLDVRNPAERANGQFKNAVSIPLNELRERLEELDKSTEYIVSCHSGLRSYIAERMLKQAGISAKNLDGAFALYRMVKPEELENEGHHHHHH,soluble
15,MGSDKIHHHHHHMNDDFLFSDDEPDIAEEEVSEPYNILIVDDDEEIHTITKMALGEFKLDGRPLKFHSVYSGKDAIAFLQDNTNIAMMLLDVVMETDHAGLDVAQWVRETRKNRLIRIVLRTGQPGQAPEEDVIARYDIDDYKEKTELTYRKLVTLMYSCLRAYRDLNAIERNKRGLEKVINASAEVFSARSMQALCQGILEQLVALITLSDDAMYCRIDALTASSDTDDPFEIIGGTGEYEEAVGQPVHGEIDWDIVRPMQQSPQNVDFRIVDGNYYGLYKTSSSRQYLLFIRGVRDLSELDQNLLGLFVNNSSIAIDNLQATENEREAQRELLYSVGEAIEKHSIDEISHHVKRSAEMAGQLAIFSGATQEQAEALKQAASVYDIGKVSVQMELAQRADVLSIHEYEEIMQKVIQGHDYLRQTDSAVAKVAALIAQDIHERWNGSGFPSQKSAKAIDLNARILSITSHFDALRTQRNYRDAKESEDAADYLLQHSGKFFDPELVGLMLDNLDAMEKIRQRFLDKKQDTRH,not soluble
16,VRILATVAATAAAVAALITPAHADGPLGVKGDTLTLPLADAITALPVAEESRAGYQRSAFKHWVDADKDGCNTRSEVLKAEAVVAPEQGTRCKLSGGQWYSAYSNTYVNSASALDLDHLVPLAEGWDSGASAWTAKEREAYANDLGDDRSLIAVTAATNRSKADQDPAEWLPPYEPYHCQYLTDWIATKLRWQLTVDQAERDTLTQATTSCPNLPVEVTLAR,soluble
17,MQELQLKVTQAQVEIIDREKFEQNINEVVAKYQNYAVTAGTIKDDKQVLADLRKLKKQLSDERIKVKKELSKPADDIDGYIKQASKPLDDTIDKIATDVKEFEDHQKALRLDTVKSYLSNKASEYMLDPRIFDEKAMEYTKAGNFMADGVTLKKVTMKSLEDLVTFEYQKEQEVEKAKATISGQCAEYGMTDQPYIRMLKEMTLVEVLGQIKADYLAEKQK,not soluble
18,GMASEFDLIQRYFRRAHPSAVLGVGDDAALIQPSPGMELAVSADMLVANTHFYPNIDPWLIGWKSLAVNISDMAAMGAQPRWATLTIALPEADEDWISKFAAGFFACAAQFDIALIGGDTTRGPLTISVQIMGETPPGASLLRSTARADDDIWVSGPLGDAALALAAIQGRYPLSDTELAACGKALHQPQPRVVLGQALRGLAHSALDISDGLLADLGHILEHSQVGAEVWLKAIPKSEVVSAHSQEVAIQKMILSGGDDYELCFTASTQHRQQIADIGRQLSLDMAVIGRITDTQQLVIHGLDDAPLTLKEHGFDHFA,soluble
19,GPGSMLTRSLVCRASLQSRRRWEQRIVSVLSENKEEGVDAVAKRFQRVYKERRYTPVEEAFPPLAAAAAAPGLRSSAAKESVESVQQPANPLVLRVAFLGPQNAGKTSLVNSMALSNVGAVSNRYGSTKDWTKAVATVHETQLLLLDTPGIVPRDTQRVRRKFASGTAKAYDALFVSDLVVLALPVGVGFVEKEHKVVATEVVRRAAGRELPVVIAMTMMDKVQTPWHRELYFAMRTDLESLGLPTAATHEVSVKGGSGLVELKDCLCQYAKPGAWEHYRREATDLNPPQRVAELLRQTFMELLPHEIPHCMRHRVLGWTRKESGTTEVVVEAFFDRPAYMFTFYGKLEAICLRAQQVTERELAPQRFRFVFQAFIAPGGLSNS,not soluble
20,MTHDNKLQVEAIKRGTVIDAIPAQIGFKLLSLFKLTETDQRITIGLNLPSGEMGRKDLIKIENTFLSEDQVDQLALYAPQATVNRIDNYEVVGKSRPSLPERIDNVLVCPNSNCISHAEPVSSSFAVRKRANDIALKCKYCEKEFSHNVVLAN,soluble
21,MSLGSIPNDIKVPLVYIEIDNSNALSGTPALAQKVLVIGQQLGTGTASPLTLNRITNSESQMDALFGKGSMLARSLKMFRKSNDYTDVYALGVADLSAGSAAKGEITIAATTAKAGVIALLIAGESVQVGVDEAATAATIATAMIAKINANTNLPVTAALKAATTETVELTAKWKGQTTNDIDIRYNYYDGEQLPQGVTLTVVEMTGGAGTPDMDAVIAAIPNEWYNHIVMPYNDTQSMNKLRDELVNRWGPLKMIEGIAYTAFRGTFAESGAFGVARNDYLFTCMGTNKAPHSPWEWAAAYAGQASYSLGIDPARPLQTLVMTSLLPPAKEIQWDPTERNLLLGDGIATYMVTPSGEVAIEREVSMYRENSYGDPDPSYLDITTPATLGYLRYSLRVMVTNRFPRHKLAGDDVLARLDPGQPVVTPKIMRNAMLELANNDWVPKGLMEDFDGFKETLEVYRDSSDQNRLNCVFKPDIVNQFRIFAALMQFKL,not soluble
22,KAGSAAAPFTKPFAVYKNVKFYLGDISHLVNCVSFDFVVNAANENLLHGGGVARAIDILTEGQLQSLSKDYISSNGPLKVGAGVMLECEKFNVFNVVGPRTGKHEHSLLVEAYNSILFENGIPLMPLLSCGIFGVRIENSLKALFSCDINKPLQVFVYSSNEEQAVLKFLDGLD,soluble
